To fix the notation:
B1: Azoarcus group I ribozyme (parent)
chain: GUGCCUUGCGCCGGGAAACCACGCAAGGGAUGGUGUCAAAUUCGGCGAAACCUAAGCGCCCGCCCGGGCGUAUGGCAACGCCGAGCCAAGCUUCGGCGCCUGCGCCGAUGAAGGUGUAGAGACUAGACGGCACCCACCUAAGGCAAACGCUAUGGUGAAGGCAUAGUCCAGGGAGUGGCGAAAGUCACACAAACCGG

In the RNAGym collection of RNA variant scans (doi:10.1093/molbev/msab373) one finds reverse-splicing fitness data, which are given here for 84 variants.

This series covers variants of B1. In words: reverse-splicing fitness (ratio to wild type); higher = more active; in vitro selection; Mg2+ level not given. In short, it runs like this:
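An in vitro group I ribozyme library with randomized positions was T7-transcribed and gel-purified. In triplicate, 10 pmol RNA in EPPS pH 7.5 was reacted with 50 pmoles of a 30-nt RNA substrate for 1 h at 37 °C across several added MgCl2 levels (1–48 mM), then stopped with EDTA. Products were reverse transcribed from a substrate-complementary primer, PCR-amplified and sequenced (HiSeq 4000). Fitness is a variant's read proportion after selection over that before, normalised to wild type.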
Turning to A111G A145C C169U U176A, the reverse-splicing fitness came to 0.0432.
On to A111G A145G C150G C169U, for which the reverse-splicing fitness was determined as 0.0298.
On to A111G A145G C150G C169A, for which the reverse-splicing fitness was 0.0128.
As to A111G A145G C150G C169G, the reverse-splicing fitness was determined as 0.0171.
As to A111G A145C C150U C169G U176C, the reverse-splicing fitness turned out to be 0.0204.
Then A111G A145C C150U C169G U176A, with 0.0242.
For the variant A111G A145C C150U C169G U176G, the reverse-splicing fitness is 0.00586.
As to A111U A120C A145C C169G U176G, the reverse-splicing fitness turned out to be 0.00463.
With A111U A120C A145C C169G U176C, the reverse-splicing fitness turned out to be 0.0106.
Regarding A111U A120C A145C C169G U176A, the reverse-splicing fitness amounted to 0.023.
As to A111G A145C C150G C169G U176G, the reverse-splicing fitness came to 0.00435.
The result for A111U A120C A145G C150A C169A U176C reads 0.0204; that for A111U A120C A145G C150A C169A U176A, 0.0184; that for A111U A120C A145G C150A C169A U176G, 0.00601.
The result for A111G A145G C150A C169U reads 0.0371; that for A111G A145G C150A C169G, 0.0238.
As to A111G A145G C150A C169A, the reverse-splicing fitness stood at 0.0138.
A111G C150U C169G: the reverse-splicing fitness turned out to be 0.0695.
For A111G C150U C169U, the reverse-splicing fitness was found to be 0.112.
The result for A111G C150U C169A reads 0.0299; that for A111G U176C, 0.752; that for A111G U176G, 0.354.
For the variant A111G U176A, the reverse-splicing fitness was 0.794.
The result for A111G A145G C150U C169U U176C reads 0.0611; that for A111G A145G C150U C169U U176G, 0.00616.
Then A111G A145G C150U C169U U176A, with 0.0415.
Regarding A111G A145G C150U C169G U176A, the reverse-splicing fitness is 0.0289.
The result for A111G A145G C150U C169G U176G reads 0.00595; that for A111G A145G C150U C169G U176C, 0.0431.
Take A111U A120C A145C C169U U176G: the reverse-splicing fitness is 0.00517.
Then A111U A120C A145C C169U U176C, with 0.0419; and A111U A120C A145C C169U U176A, with 0.0309.
Regarding A111G A145C C169A, the reverse-splicing fitness worked out at 0.0493.
For the variant A111G A145C C169U, the reverse-splicing fitness came to 0.188.
Then A111G A145C C169G, with 0.116.
A111G C150U C169U U176C: the reverse-splicing fitness was 0.0507.
As for A111G C150U C169U U176G, the reverse-splicing fitness turned out to be 0.00703.
The result for A111G C150U C169U U176A reads 0.0336; that for A111G C150G C169G, 0.0138.
With A111G C150G C169U, the reverse-splicing fitness stood at 0.0227.
On to A111G C150G C169A, for which the reverse-splicing fitness was determined as 0.0114.
For the variant A111G C169U U176C, the reverse-splicing fitness was determined as 0.0614.
In the case of A111G C169U U176G, the reverse-splicing fitness worked out at 0.00769.
Take A111G C169U U176A: the reverse-splicing fitness came to 0.0489.
With A111U A120C A145C U176G, the reverse-splicing fitness came to 0.0498.
As for A111U A120C A145C U176A, the reverse-splicing fitness was 0.232.
The result for A111U A120C A145C U176C reads 0.243; that for A111G A145G C150U C169A, 0.0452.
Then A111G A145G C150U C169G, with 0.101; and A111G A145G C150U C169U, with 0.168.
As to A111U A120C A145G C150U C169A, the reverse-splicing fitness was found to be 0.0113.
For A111U A120C A145C C150G U176C, the reverse-splicing fitness was found to be 0.04.
Then A111U A120C A145C C150G U176G, with 0.00429; and A111U A120C A145C C150G U176A, with 0.0176.
In the case of A111U A120C A145G C150A C169G U176G, the reverse-splicing fitness stood at 0.00488.
On to A111U A120C A145G C150A C169G U176A, for which the reverse-splicing fitness was found to be 0.0161.
Turning to A111U A120C A145G C150A C169G U176C, the reverse-splicing fitness amounted to 0.0246.
As for A111G C150U U176A, the reverse-splicing fitness is 0.686.
Consider A111G C150U U176C, for which the reverse-splicing fitness was 0.646.
The result for A111G C150U U176G reads 0.271; that for A111G A145U C150U C169G U176A, 0.0215.
As for A111G A145U C150U C169G U176G, the reverse-splicing fitness is 0.0059.
In the case of A111G A145U C150U C169G U176C, the reverse-splicing fitness came to 0.0325.
The result for A111G C169G U176G reads 0.00607; that for A111G C169G U176A, 0.0309.
A111G C169G U176C: the reverse-splicing fitness was 0.0577.
With A111G C169A U176G, the reverse-splicing fitness was determined as 0.00542.
Take A111G C169A U176A: the reverse-splicing fitness worked out at 0.0183.
With A111G C169A U176C, the reverse-splicing fitness was found to be 0.0226.
Regarding A111G A145U C150G C169U U176A, the reverse-splicing fitness stood at 0.00751.
Turning to A111G A145U C150G C169U U176G, the reverse-splicing fitness was 0.00488.
Consider A111G A145U C150G C169U U176C, for which the reverse-splicing fitness came to 0.0148.
In the case of A111G C169A, the reverse-splicing fitness came to 0.0602.
Take A111G C169U: the reverse-splicing fitness amounted to 0.196.
As to A111G C169G, the reverse-splicing fitness stood at 0.117.
Take A111U A120C A145C C150G C169G U176C: the reverse-splicing fitness is 0.0059.
For A111U A120C A145C C150G C169G U176G, the reverse-splicing fitness turned out to be 0.00475.
A111U A120C A145C C150G C169G U176A: the reverse-splicing fitness came to 0.00898.
Take A111U A120C A145C C150A C169G U176A: the reverse-splicing fitness stood at 0.0194.
With A111U A120C A145C C150A C169G U176C, the reverse-splicing fitness worked out at 0.00889.
Regarding A111U A120C A145C C150A C169G U176G, the reverse-splicing fitness stood at 0.00536.
Take A111G A145C U176A: the reverse-splicing fitness is 0.718.
A111G A145C U176G: the reverse-splicing fitness is 0.448.
Then A111G A145C U176C, with 0.78.
